Several values for one entry are separate records, joined by “and”; a condition that tells them apart may be missing. Identical values can stand only once.
Experiments:
[1] = molecular target: zRET^ECD-zGDNF^mat.-zGFRα1a^D1-3 ternary complex (zRGα1a), 2:2:2 (zebrafish) (UniProt A8E7C6); test: cryo-EM micrographs, particle-pair analysis and 2D class averages; non-crosslinked zRGα1a at 0.1 mg/ml on Quantifoil grids (dataset 3); complex with complex in linear arrays
[2] = molecular target: T1, zGDNF^mat._(Y158A)-zGFRα1a^D1−3WT complex (zebrafish, UniProt Q98TT9 1-353; Q98TU0 135-235, Y158A); test: MST
T1 sequence 1: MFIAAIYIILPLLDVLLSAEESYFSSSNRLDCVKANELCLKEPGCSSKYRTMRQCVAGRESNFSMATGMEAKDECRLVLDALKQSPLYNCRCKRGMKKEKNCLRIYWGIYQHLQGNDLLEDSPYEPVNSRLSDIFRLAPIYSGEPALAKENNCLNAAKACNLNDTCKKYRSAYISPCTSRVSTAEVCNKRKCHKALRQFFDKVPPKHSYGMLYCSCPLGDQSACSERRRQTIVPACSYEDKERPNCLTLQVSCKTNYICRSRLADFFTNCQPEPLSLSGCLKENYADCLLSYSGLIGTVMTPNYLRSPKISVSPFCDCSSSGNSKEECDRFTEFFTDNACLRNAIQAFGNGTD
T1 sequence 2: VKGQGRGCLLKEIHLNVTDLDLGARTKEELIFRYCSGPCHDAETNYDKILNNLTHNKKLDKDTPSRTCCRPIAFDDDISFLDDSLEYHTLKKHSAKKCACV

[3] = molecular target: T2, zebrafish RET extracellular domain (zRET^ECD), A8E7C6; test: MST; conditions: chain shown with the change
T2 chain: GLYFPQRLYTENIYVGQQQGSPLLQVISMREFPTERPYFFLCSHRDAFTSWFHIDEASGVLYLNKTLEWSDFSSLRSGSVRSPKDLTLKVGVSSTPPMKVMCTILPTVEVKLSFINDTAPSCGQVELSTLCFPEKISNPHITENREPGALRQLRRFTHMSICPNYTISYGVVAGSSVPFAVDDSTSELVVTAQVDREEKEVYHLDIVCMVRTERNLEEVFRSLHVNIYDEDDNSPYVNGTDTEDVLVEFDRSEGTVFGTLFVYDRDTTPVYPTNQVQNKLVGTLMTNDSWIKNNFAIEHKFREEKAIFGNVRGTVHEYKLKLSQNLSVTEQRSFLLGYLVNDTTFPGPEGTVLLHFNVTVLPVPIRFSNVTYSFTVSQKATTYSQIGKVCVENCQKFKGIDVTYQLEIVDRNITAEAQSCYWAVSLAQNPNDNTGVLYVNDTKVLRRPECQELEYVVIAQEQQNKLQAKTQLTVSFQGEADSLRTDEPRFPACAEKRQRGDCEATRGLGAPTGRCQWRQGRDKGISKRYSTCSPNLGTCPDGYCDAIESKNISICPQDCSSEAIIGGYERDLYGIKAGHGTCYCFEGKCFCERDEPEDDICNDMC

[4] = molecular target: zRET^ECD with the CLD3-β2-β3 loop truncated to AAG (zRET^ECD_(P291-Q296:AAG)) (zebrafish) (UniProt A8E7C6); test: MST; zRET^ECD labelled with NHS-RED (50 nM fluorophore) held constant, unlabelled zGFRα1^D1-3-zGDNF^mat. (WT and mutants) in 1:1 serial dilution; 25°C; 20 mM HEPES pH 7.0, 150 mM NaCl, 1 mM CaCl2, 0.05 % Tween-20; quadratic fit, at least three repeats
[5] = molecular target: zebrafish RET extracellular domain (zRET^ECD) (zebrafish) (UniProt A8E7C6); test: as above
[6] = molecular target: the molecule itself; test: cryo-EM structure; reconstituted zRGα1a complex crosslinked by GraFix (glutaraldehyde), 0.1 mg/ml; 20 mM Tris pH 7.0, 150 mM NaCl, 1 mM CaCl2; untilted and 30° tilted datasets

zRET^ECD-zGDNF^mat.-zGFRα1a^D1-3 ternary complex (zRGα1a), 2:2:2 (from UniProt A8E7C6 1-626; Q98TT9 1-353; Q98TU0 135-235)
stoichiometry N [1]: 2 and 4

B1: zebrafish RET extracellular domain (zRET^ECD) (domain or fragment)
chain: GLYFPQRLYTENIYVGQQQGSPLLQVISMREFPTERPYFFLCSHRDAFTSWFHIDEASGVLYLNKTLEWSDFSSLRSGSVRSPKDLTLKVGVSSTPPMKVMCTILPTVEVKLSFINDTAPSCGQVELSTLCFPEKISNPHITENREPGALRQLRRFTHMSICPNYTISYGVVAGSSVPFAVDDSTSELVVTAQVDREEKEVYHLDIVCMVRTERNLEEVFRSLHVNIYDEDDNSPYVNGTDTEDVLVEFDRSEGTVFGTLFVYDRDTTPVYPTNQVQNKLVGTLMTNDSWIKNNFAIEHKFREEKAIFGNVRGTVHEYKLKLSQNLSVTEQRSFLLGYLVNDTTFPGPEGTVLLHFNVTVLPVPIRFSNVTYSFTVSQKATTYSQIGKVCVENCQKFKGIDVTYQLEIVDRNITAEAQSCYWAVSLAQNPNDNTGVLYVNDTKVLRRPECQELEYVVIAQEQQNKLQAKTQLTVSFQGEADSLRTDEPRFPACAEKRQRGDCEATRGLGAPTGRCQWRQGRDKGISKRYSTCSPNLGTCPDGYCDAIESKNISICPQDCSSEAIIGGYERDLYGIKAGHGTCYCFEGKCFCERDEPEDDICNDMC
modifications: NHS-RED 2nd generation dye (amine reactive) in the MST only
Kd [2]: 173 nM

B2: zGDNF^mat.-zGFRα1a^D1-3 complex (2:2), wild type, Q98TT9;Q98TU0 N323A (protein)
chain 1: MFIAAIYIILPLLDVLLSAEESYFSSSNRLDCVKANELCLKEPGCSSKYRTMRQCVAGRESNFSMATGMEAKDECRLVLDALKQSPLYNCRCKRGMKKEKNCLRIYWGIYQHLQGNDLLEDSPYEPVNSRLSDIFRLAPIYSGEPALAKENNCLNAAKACNLNDTCKKYRSAYISPCTSRVSTAEVCNKRKCHKALRQFFDKVPPKHSYGMLYCSCPLGDQSACSERRRQTIVPACSYEDKERPNCLTLQVSCKTNYICRSRLADFFTNCQPEPLSLSGCLKENYADCLLSYSGLIGTVMTPNYLRSPKISVSPFCDCSSSGASKEECDRFTEFFTDNACLRNAIQAFGNGTD
chain 2: VKGQGRGCLLKEIHLNVTDLDLGYRTKEELIFRYCSGPCHDAETNYDKILNNLTHNKKLDKDTPSRTCCRPIAFDDDISFLDDSLEYHTLKKHSAKKCACV
Kd ([3]; fluorescently labeled zRETECD, minimum of n = 3 repeats): 88 nM

B3: zGDNF^mat.-zGFRα1a^D1-3 complex (2:2), wild type (complex)
chain 1: MFIAAIYIILPLLDVLLSAEESYFSSSNRLDCVKANELCLKEPGCSSKYRTMRQCVAGRESNFSMATGMEAKDECRLVLDALKQSPLYNCRCKRGMKKEKNCLRIYWGIYQHLQGNDLLEDSPYEPVNSRLSDIFRLAPIYSGEPALAKENNCLNAAKACNLNDTCKKYRSAYISPCTSRVSTAEVCNKRKCHKALRQFFDKVPPKHSYGMLYCSCPLGDQSACSERRRQTIVPACSYEDKERPNCLTLQVSCKTNYICRSRLADFFTNCQPEPLSLSGCLKENYADCLLSYSGLIGTVMTPNYLRSPKISVSPFCDCSSSGNSKEECDRFTEFFTDNACLRNAIQAFGNGTD
chain 2: VKGQGRGCLLKEIHLNVTDLDLGYRTKEELIFRYCSGPCHDAETNYDKILNNLTHNKKLDKDTPSRTCCRPIAFDDDISFLDDSLEYHTLKKHSAKKCACV
Kd [4]: 18 nM
Kd [5]: 90 nM

B4: zebrafish GDNF, N-terminally truncated (zGDNF^mat.) (ligand, UniProt Q98TU0 135-235, looked up)
chain: VKGQGRGCLLKEIHLNVTDLDLGYRTKEELIFRYCSGPCHDAETNYDKILNNLTHNKKLDKDTPSRTCCRPIAFDDDISFLDDSLEYHTLKKHSAKKCACV
notes: One protomer; it stands as a dimer in the complexes; also called GDNF1; not shown: Protein A, C-terminal, cleaved
stoichiometry N [6]: 2

B5: zGDNF^mat._(Y158A)-zGFRα1a^D1−3WT complex (complex)
chain 1: MFIAAIYIILPLLDVLLSAEESYFSSSNRLDCVKANELCLKEPGCSSKYRTMRQCVAGRESNFSMATGMEAKDECRLVLDALKQSPLYNCRCKRGMKKEKNCLRIYWGIYQHLQGNDLLEDSPYEPVNSRLSDIFRLAPIYSGEPALAKENNCLNAAKACNLNDTCKKYRSAYISPCTSRVSTAEVCNKRKCHKALRQFFDKVPPKHSYGMLYCSCPLGDQSACSERRRQTIVPACSYEDKERPNCLTLQVSCKTNYICRSRLADFFTNCQPEPLSLSGCLKENYADCLLSYSGLIGTVMTPNYLRSPKISVSPFCDCSSSGNSKEECDRFTEFFTDNACLRNAIQAFGNGTD
chain 2: VKGQGRGCLLKEIHLNVTDLDLGARTKEELIFRYCSGPCHDAETNYDKILNNLTHNKKLDKDTPSRTCCRPIAFDDDISFLDDSLEYHTLKKHSAKKCACV
fold decrease in affinity against the wild type [5]: 2 fold

B6: zGDNF^mat.-zGFRα1a^D1-3 complex (2:2), wild type, Q98TT9;Q98TU0 L156A (protein)
chain 1: MFIAAIYIILPLLDVLLSAEESYFSSSNRLDCVKANELCLKEPGCSSKYRTMRQCVAGRESNFSMATGMEAKDECRLVLDALKQSPLYNCRCKRGMKKEKNCLRIYWGIYQHLQGNDLLEDSPYEPVNSRLSDIFRLAPIYSGEPALAKENNCLNAAKACNLNDTCKKYRSAYISPCTSRVSTAEVCNKRKCHKALRQFFDKVPPKHSYGMLYCSCPLGDQSACSERRRQTIVPACSYEDKERPNCLTLQVSCKTNYICRSRLADFFTNCQPEPLSLSGCLKENYADCLLSYSGLIGTVMTPNYLRSPKISVSPFCDCSSSGNSKEECDRFTEFFTDNACLRNAIQAFGNGTD
chain 2: VKGQGRGCLLKEIHLNVTDLDAGYRTKEELIFRYCSGPCHDAETNYDKILNNLTHNKKLDKDTPSRTCCRPIAFDDDISFLDDSLEYHTLKKHSAKKCACV
Kd [3]: 88 nM

B7: zGDNF^mat.WT-zGFR1α1a^D1−3_(E326A,E327A) complex (complex)
chain 1: MFIAAIYIILPLLDVLLSAEESYFSSSNRLDCVKANELCLKEPGCSSKYRTMRQCVAGRESNFSMATGMEAKDECRLVLDALKQSPLYNCRCKRGMKKEKNCLRIYWGIYQHLQGNDLLEDSPYEPVNSRLSDIFRLAPIYSGEPALAKENNCLNAAKACNLNDTCKKYRSAYISPCTSRVSTAEVCNKRKCHKALRQFFDKVPPKHSYGMLYCSCPLGDQSACSERRRQTIVPACSYEDKERPNCLTLQVSCKTNYICRSRLADFFTNCQPEPLSLSGCLKENYADCLLSYSGLIGTVMTPNYLRSPKISVSPFCDCSSSGNSKAACDRFTEFFTDNACLRNAIQAFGNGTD
chain 2: VKGQGRGCLLKEIHLNVTDLDLGYRTKEELIFRYCSGPCHDAETNYDKILNNLTHNKKLDKDTPSRTCCRPIAFDDDISFLDDSLEYHTLKKHSAKKCACV
Kd [5]: 170 nM

B8: zGDNFwt-zGFR1α1a^D1−3_(N323A,E326A,E327A) complex (complex)
chain 1: MFIAAIYIILPLLDVLLSAEESYFSSSNRLDCVKANELCLKEPGCSSKYRTMRQCVAGRESNFSMATGMEAKDECRLVLDALKQSPLYNCRCKRGMKKEKNCLRIYWGIYQHLQGNDLLEDSPYEPVNSRLSDIFRLAPIYSGEPALAKENNCLNAAKACNLNDTCKKYRSAYISPCTSRVSTAEVCNKRKCHKALRQFFDKVPPKHSYGMLYCSCPLGDQSACSERRRQTIVPACSYEDKERPNCLTLQVSCKTNYICRSRLADFFTNCQPEPLSLSGCLKENYADCLLSYSGLIGTVMTPNYLRSPKISVSPFCDCSSSGASKAACDRFTEFFTDNACLRNAIQAFGNGTD
chain 2: VKGQGRGCLLKEIHLNVTDLDLGYRTKEELIFRYCSGPCHDAETNYDKILNNLTHNKKLDKDTPSRTCCRPIAFDDDISFLDDSLEYHTLKKHSAKKCACV
Kd [5]: 2350 nM

Source: article PMC8266384, “A two-site flexible clamp mechanism for RET-GDNF-GFRα1 assembly reveals both conformational adaptation and strict geometric spacing” (Structure(London, England:1993), 2021)
